Laboratory results reported in patent US11254745 (CROWN BIOSCIENCE, dated 2022).
Changes are numbered by the printed parent chain.

B1: Chimeric 2B6 anti-CD4 antibody (antibody, human IgG1, kappa, V domains shown)
VH: EVQLQESGPSLVKPSQTLSLTCSVTGDSITSGYWNWIRKFPGHKLEFLGYISFADTTNYNPSLKSRVSITRDTSKNQFDLQLKSVTTEDTATYHCARDDYGYYAMDYWGQGISVTVSS
VL: DIHLTQTTSSLSASLGDRVTIICRASQDIDNYLNWYQLKPDGTLKLLIYYTSRLHSGVPSRFSGSGSGTEYSLTISNLEREDVATYFCQQGNTLPTFGAGTKLELKR
B2: Chimeric 11E12 anti-CD4 antibody (antibody, human IgG1, kappa, V domains shown)
VH: B1 VH with Q5E, G32S, V67I, H94Y, Y100F
VL: B1 VL with H3Y, L4V, D30N, S63G, R80Q
B3: Chimeric 29B7 anti-CD4 antibody (antibody, human IgG1, kappa, V domains shown)
VH: QVQLQQSGAELAKPGASVKMSCKTSADSLNTHWMHWVKQRPGQGLEWIGYINPYTGSGEYSQKFKGKATLTADISSSTAYMQLISLTSEDSAVYYCAYDSTGAMDYWGQGTSVTVSS
VL: DIKMTQSPSSMYASLGERITITCKASQDINRYLSWFQQKPGKSPKTPIYRADRSVDGVPSRFSGSGSGQDYSLTISSLEYEDMGIYYCQQYDEFPYTFGGGTKLEIKR
B4: 2B6 humanized anti-CD4 antibody (antibody, V domains shown)
VH: QVQLQESGPGLVKPSETLSLTCTVSGDSITSGYWNWIRQPPGKGLEFLGYISFADTTNYNPSLKSRVTISRDTSKNQFSLKLSSVTAADTAVYYCARDDYGYYAMDYWGQGTLVTVSS
VL: DIQLTQSPSSLSASVGDRVTITCRASQDIDNYLNWYQQKPGKAPKLLIYYTSRLHSGVPSRFSGSGSGTDYTLTISSLQPEDFATYYCQQGNTLPTFGQGTKLEIK
notes: Expressed as heavy and light chains in Freestyle 293 cells; also called Humanized 2B6
B5: 29B7 humanized anti-CD4 antibody (antibody, V domains shown)
VH: QVQLVQSGAEVKKPGASVKVSCKASGDSLNTHWMHWVRQAPGQRLEWIGYINPYTGSGEYSQKFKGRATLTADISASTAYMELSSLRSEDTAVYYCAYDSTGAMDYWGQGTLVTVSS
VL: DIQMTQSPSSLSASVGDRVTITCKASQDINRYLSWFQQKPGKAPKTPIYRADRSVDGVPSRFSGSGSGQDYTLTISSLQPEDFATYYCQQYDEFPYTFGQGTKLEIK
notes: Expressed as heavy and light chains in Freestyle 293 cells; The description says only that humanized antibodies may have human IgG1 and human kappa constant regions; also called Humanized 29B7
B6: MT412 humanized anti-CD4 antibody (antibody, V domains shown)
VH: QIQLVQSGSELKKPGASVKVSCKASGYTFTDYSMHWVRQAPGQGLEWMGWINTETGEPTYADDFKGRFVFSLDTSVSTAYLQISSLKAEDTAVYYCAREDYYGHDGFLYWGQGTLVTVSS
VL: DIQMTQSPSFLSASVGDRVTITCKASQDVVTTVAWYQQKPGKAPKLLIYWASLRHTGVPSRFSGSGSGTEFTLTISSLQPEDFATYFCQQYSSYPYTFGQGTKLEIKR
notes: Expressed as heavy and light chains in Freestyle 293 cells; The description says only that humanized antibodies may have human IgG1 and human kappa constant regions; also called Humanized MT412

Columns and labels:
[1] = target: T1, extracellular domain of hCD4 fused with human Fc tag (hCD4-hFc) (human, UniProt P01730 26-396); assay: ELISA, chimeric antibody on hCD4, method similar to Example 2
T1 construct: extracellular domain; also called human CD4-hFc; hCD4 (ELISA); not shown: human Fc tag
Procedure: (§1) Example 2: Selection of the Anti-hCD4 Hybridoma Antibodies Based on Binding and Gene Reporter Assays The binding interaction between hybridoma antibody and human CD4-hFc was measured by ELISA. 96-well plates (Costar, Cat. No:9018) were coated with 100 μL of 2 μg/ml CD4-hFc (CrownBio) in PBS buffer (Hyclone, Cat. No: SH30256.01B) overnight at 4° C. The wells were aspirated and non-specific binding sites were blocked by adding 200 μL of blocking buffer containing 1% (w/v) of bovine serum albumin (BSA, Roche, Cat. No: 738328) and incubating for 1 hour at 37° C. After the plates are washed three times with PBS buffer containing 0.05% (v/v) Tween™ 20 (Sigma, Cat. No: P1379), 100 μL hybridoma supernatant or a serial concentrations of purified antibody (starting from 20 μg/mL) diluted in blocking buffer was added to each well and incubated at room temperature for 1 hour. The plates were washed and incubated with 100 μL/well of Goat anti-Mouse IgG (Thermo, Cat. No:31432) in blocking buffer for 60 min. After the plates were washed, 100 μL/well of substrate solution TMB (eBioscience, Cat. No:00-4201-56) was added, and the plates were incubated for 2 min at room temperature before 100 μL/well of 2N H_2SO_4 was added to stop the reaction. The colorimetric signals were monitored at 450 nm using a SpectraMax Plus microplate reader (Molecular Devices). For the purified antibody, data were analyzed using GraphPad Prism 5 to calculated the $EC50$.
(§2) Freestyle 293 cells (200 mL at 1*10^6/mL) were transfected with 100 µg of each of the chimeric heavy and light chain expression plasmids and cultured for 6 days at 37° C. The chimeric antibody in the supernatant was then purified with Protein-A column (GE healthcare). Binding of the chimeric antibody with CD4 was measured by ELISA (FIG. 3, Table 5) and FACS (FIG. 4, Table 6), using the similar methods described above in Example 2.

[2] = target: T2, human CD4 on 293T cells stably expressing CD4 (CD4-293T) (human, UniProt P01730 26-458); assay: FACS on 293T cells expressing human CD4, MFI; table under the graph (unit from the graph's axis); Table 6 of the text gives this value to 11E12
T2 construct: whole, on cells; also called 293T-CD4 cells; hCD4 (FACS)
Procedure: (§3) Cell binding analysis of anti-CD4 antibody was performed using 293T cell line stably expressing CD4 (CD4-293T). 2*10^5 CD4-293T cells were added to each well of 96-well plate and incubated with the indicated hybridoma supernatant or a serial concentrations of purified antibody (starting from 20 μg/mL) at 4° C. for 1 h. After the cells were washed three times with FACS buffer, the secondary antibody (PE Goat anti-mouse: 1:200) was added to the cells at 100 μl/well, and incubated at 4° C. for 40 min. Cells were washed three times with FACS buffer and analyzed by FACS Array. The binding EC50 of purified antibody was calculated with GraphPad Prism 5.
as §2

[3] = target: T3, extracellular domain of hCD4 fused with a histidine tag (hCD4-HisTag) (human, UniProt P01730 26-396); assay: Biacore T200 SPR, antibody captured on Protein A, CD4-HisTag analyte, 1:1 fit, 25 C
T3 construct: extracellular domain; also called human CD4-HisTag; not shown: histidine tag
Procedure: The binding kinetics between CD4 and CD4 antibodies were measured by Biacore™ analysis, which was performed at 25° C. on a Biacore™ T200 instrument. Protein A (GE, Cat. No:29139131-AA) was diluted with 10 mM pH 5.0 sodium acetate and immobilized onto reference and experiment flow cells of a CM5 biosensor chip to around 15000 RU using an amine coupling kit (GE, BR10050). In the beginning of each cycle, diluted test antibody (1.5 µg/mL) was injected over experiment flow cell for 1 minute to be captured. CD4-HisTag analyte series were prepared by diluting the stocks with running buffer to 100 nM followed by 2-fold serial dilution in the same buffer down to 0.78 nM. Analytes were injected in series over the reference and experiment flow cells for 3 minutes at a flow rate of 30
μL/minute. Running buffer (PBS with 0.05% P20) was allowed to flow over for 10 minutes at a flow rate of 30 μL/minute. At the end of each cycle, the biosensor surface was regenerated with 3-minute injection of 10 mM pH 2.0 Glycine-HCl buffer at a flow rate of 10 μL/minute. For each analyte sample injection (i.e., each cycle), binding responses obtained from the experimental biosensor surface were double referenced by subtracting simultaneously recorded responses from the reference surface followed by additional subtraction of responses from a single referenced running buffer sample. The association and dissociation rate constants (ka and kd) were determined simultaneously by fitting double-referenced sensorgrams of the entire titration series to Langmuir model (1:1) using Biaevaluation software. The dissociation constant, KD, was calculated from the determined rate constants by the equation KD=kd/ka.

[4] = target: T2, human CD4 on 293T cells stably …; assay: FACS, chimeric antibody on CD4-293T cells
Procedure: as §3, §2

[5] = target: T2, human CD4 on 293T cells stably …; assay: FACS on 293T cells expressing human CD4, MFI; table under the graph (unit from the graph's axis); Table 6 of the text gives this value to 29B7
Procedure: as §3, §2

[6] = target: T2, human CD4 on 293T cells stably …; assay: FACS on 293T cells expressing human CD4, MFI; table under the graph (unit from the graph's axis); Table 6 of the text gives this value to MT412
Procedure: as §3, §2

[7] = target: T1, extracellular domain of hCD4 fused with …; assay: ELISA on human CD4, OD450; table under the graph (unit from the graph's axis); Table 7 of the text gives this value to 29B7
Procedure: (§4) Example 2: Selection of the Anti-hCD4 Hybridoma Antibodies Based on Binding and Gene Reporter Assays The binding interaction between hybridoma antibody and human CD4-hFc was measured by ELISA. 96-well plates (Costar, Cat. No:9018) were coated with 100 μL of 2 μg/ml CD4-hFc (CrownBio) in PBS buffer (Hyclone, Cat. No: SH30256.01B) overnight at 4° C. The wells were aspirated and non-specific binding sites were blocked by adding 200 μL of blocking buffer containing 1% (w/v) of bovine serum albumin (BSA, Roche, Cat. No: 738328) and incubating for 1 hour at 37° C. […] The colorimetric signals were monitored at 450 nm using a SpectraMax Plus microplate reader (Molecular Devices). For the purified antibody, data were analyzed using GraphPad Prism 5 to calculated the $EC50$.
(§5) DNA encoding humanized 2B6, 29B7 and MT412 antibody light chain and heavy chain was synthesized and cloned to the expression vector pcDNA3.1 (Invitrogen, Cat. No: V-790). […] Binding of the chimeric antibody with CD4 was measured by ELISA (FIG. 6, Table 7) and FACS (FIG. 7, Table 8), and the methods used were similar to those described above in Example 2.

[8] = target: T2, human CD4 on 293T cells stably …; assay: FACS, humanized antibody on CD4-293T cells
Procedure: as §3
(§6) DNA encoding humanized 2B6, 29B7 and MT412 antibody light chain and heavy chain was synthesized and cloned to the expression vector pcDNA3.1 (Invitrogen, Cat. No: V-790). Freestyle 293 cells (200 mL at 10^6/mL) were transfected with 100 µg of each of the humanized heavy and light chain expression plasmids and cultured for 6 days at 37° C. The humanized antibody in the supernatant was then purified with Protein-A column (GE healthcare). Binding of the chimeric antibody with CD4 was measured by ELISA (FIG. 6, Table 7) and FACS (FIG. 7, Table 8), and the methods used were similar to those described above in Example 2.

[9] = target: T2, human CD4 on 293T cells stably …; assay: FACS on 293T cells expressing human CD4, MFI; table under the graph (unit from the graph's axis); Table 8 of the text gives this value to 29B7
Procedure: as §3, §6

[10] = target: T1, extracellular domain of hCD4 fused with …; assay: ELISA, humanized antibody on hCD4, method similar to Example 2
Procedure: as §1, §6

[11] = target: T2, human CD4 on 293T cells stably …; assay: FACS on 293T cells expressing human CD4, MFI; table under the graph (unit from the graph's axis); Table 8 of the text gives this value to MT412
Procedure: as §3, §6

[12] = target: T1, extracellular domain of hCD4 fused with …; assay: ELISA on human CD4, OD450; table under the graph (unit from the graph's axis); Table 7 of the text gives this value to MT412
Procedure: as §4, §5

[13] = target: T2, human CD4 on 293T cells stably …; assay: FACS on 293T cells expressing human CD4, MFI; table under the graph (unit from the graph's axis); Table 8 of the text gives this value to 2B6
Procedure: as §3, §6

[14] = target: T1, extracellular domain of hCD4 fused with …; assay: ELISA on human CD4, OD450; table under the graph (unit from the graph's axis); Table 7 of the text gives this value to 2B6
Procedure: as §4, §5

Binder | EC50 [1] | EC50 [2] | Kd [3] | koff [3] | kon [3] | EC50 [4] | EC50 [5] | EC50 [6] | EC50 [7] | EC50 [8] | EC50 [9] | EC50 [10] | EC50 [11] | EC50 [12] | EC50 [13] | EC50 [14]
B1 | 0.0165 µg/mL | 0.316 µg/mL | 0.373 nM | 0.000122 s⁻¹ | 327000 M⁻¹ s⁻¹ | 0.669 µg/mL |  |  |  |  |  |  |  |  |  | 
B2 | 0.0168 µg/mL |  | 6.26 nM | 0.00618 s⁻¹ | 987000 M⁻¹ s⁻¹ | 0.316 µg/mL | 0.401 µg/mL |  |  |  |  |  |  |  |  | 
B3 | 0.0243 µg/mL |  | 0.0843 nM | 5.98e-05 s⁻¹ | 709000 M⁻¹ s⁻¹ | 0.401 µg/mL |  | 0.515 µg/mL |  |  |  |  |  |  |  | 
B4 |  |  | 0.152 nM | 7.89e-05 s⁻¹ | 520000 M⁻¹ s⁻¹ |  |  |  | 0.0056 µg/mL | 0.211 µg/mL | 0.182 µg/mL | 0.0116 µg/mL |  |  |  | 
B5 |  |  | 0.444 nM | 0.000457 s⁻¹ | 1.03e+06 M⁻¹ s⁻¹ |  |  |  |  | 0.182 µg/mL |  | 0.0056 µg/mL | 0.183 µg/mL | 0.0116 µg/mL |  | 
B6 |  |  | 1.8 nM | 0.00199 s⁻¹ | 1.11e+06 M⁻¹ s⁻¹ |  |  |  |  | 0.183 µg/mL |  | 0.0116 µg/mL |  |  | 0.211 µg/mL | 0.0116 µg/mL
